Measured values published in article PMC10786891, “Massively parallel profiling of RNA-targeting CRISPR-Cas13d”.

T1: EsCas13d, nuclease-dead (Eubacterium siraeum, UniProt B0MS50, R295A;H300A;R849A;H854A)
T1 sequence: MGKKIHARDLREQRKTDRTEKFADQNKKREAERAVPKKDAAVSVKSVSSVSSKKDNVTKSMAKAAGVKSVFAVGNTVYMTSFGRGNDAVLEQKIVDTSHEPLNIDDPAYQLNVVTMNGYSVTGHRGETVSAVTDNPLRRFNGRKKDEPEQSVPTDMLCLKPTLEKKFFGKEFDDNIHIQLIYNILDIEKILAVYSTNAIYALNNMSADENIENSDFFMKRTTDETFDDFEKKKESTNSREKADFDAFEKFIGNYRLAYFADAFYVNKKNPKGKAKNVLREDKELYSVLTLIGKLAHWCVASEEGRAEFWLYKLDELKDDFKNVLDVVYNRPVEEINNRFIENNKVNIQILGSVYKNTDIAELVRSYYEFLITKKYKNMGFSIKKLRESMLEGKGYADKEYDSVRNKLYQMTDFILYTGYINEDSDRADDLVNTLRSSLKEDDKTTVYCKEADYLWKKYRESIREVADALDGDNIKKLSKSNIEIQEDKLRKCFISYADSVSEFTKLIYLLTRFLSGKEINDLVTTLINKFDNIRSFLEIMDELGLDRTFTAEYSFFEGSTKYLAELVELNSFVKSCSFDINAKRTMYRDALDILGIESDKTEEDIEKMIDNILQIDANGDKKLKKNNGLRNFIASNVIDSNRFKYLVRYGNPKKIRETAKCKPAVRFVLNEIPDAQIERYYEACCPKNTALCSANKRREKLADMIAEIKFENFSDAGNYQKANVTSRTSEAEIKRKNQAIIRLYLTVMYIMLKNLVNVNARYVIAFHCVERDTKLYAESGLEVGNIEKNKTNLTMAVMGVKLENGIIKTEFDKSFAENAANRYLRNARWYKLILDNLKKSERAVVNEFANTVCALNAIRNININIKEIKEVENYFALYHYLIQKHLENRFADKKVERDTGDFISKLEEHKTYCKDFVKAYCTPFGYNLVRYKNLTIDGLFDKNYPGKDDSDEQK


Biological target: T1, EsCas13d, nuclease-dead
Assay: crRNA (strand 1, pre-loaded); Mg2+; 40 mM Tris-HCl pH 7.5, 150 mM NaCl, 6 mM MgCl2, 1 mM DTT, 0.1% Tween-20, 0.2 mg/ml BSA; 25 C; 10 min per concentration, then washed
Settings: tags: His6-TwinStrep-SUMO cleaved; N-terminal SNAP kept (SNAP-Surface 488); label: 3' end held by stalled T7 RNA polymerase

Binder | Kd
target 1 G5C,U10C (mixed) RNA 1: CACCCGUGCAAAAAUGCAGGGGUCUAAAACUGAGCGGAUAACCUCUCUAUGG RNA 2: GGGAAUGGAUCCACAUCUACGAAUUCGUACCAUAGAGAGGUCAUCCCCUCACCGAGAUCGGAAGAGCACACGU | 23.2 ± 1.2 nM
target 1 insG 3' of 7,insU 3' of 1 (mixed) RNA 1: CACCCGUGCAAAAAUGCAGGGGUCUAAAACUGAGCGGAUAACCUCUCUAUGG RNA 2: GGGAAUGGAUCCACAUCUACGAAUUCGUACCAUAGAGAGGUUAUCGCGCUCAUCCGAGAUCGGAAGAGCACACGU | 7.3 ± 0.5 nM
target 1 insA 3' of 11 (mixed) RNA 1: CACCCGUGCAAAAAUGCAGGGGUCUAAAACUGAGCGGAUAACCUCUCUAUGG RNA 2: GGGAAUGGAUCCACAUCUACGAAUUCGUACCAUAGAGAGGUAUAUCCGCUCACCGAGAUCGGAAGAGCACACGU | 16.4 ± 0.8 nM
target 1 insU 3' of 21,insA 3' of 19 (mixed) RNA 1: CACCCGUGCAAAAAUGCAGGGGUCUAAAACUGAGCGGAUAACCUCUCUAUGG RNA 2: GGGAAUGGAUCCACAUCUACGAAUUCGUACCUAUAAGAGAGGUUAUCCGCUCACCGAGAUCGGAAGAGCACACGU | 55 ± 10 nM
target 1 insU 3' of 20,insC 3' of 10 (mixed) RNA 1: CACCCGUGCAAAAAUGCAGGGGUCUAAAACUGAGCGGAUAACCUCUCUAUGG RNA 2: GGGAAUGGAUCCACAUCUACGAAUUCGUACCAUUAGAGAGGUUCAUCCGCUCACCGAGAUCGGAAGAGCACACGU | 30 ± 4 nM
target 1 A9G,C21A (mixed) RNA 1: CACCCGUGCAAAAAUGCAGGGGUCUAAAACUGAGCGGAUAACCUCUCUAUGG RNA 2: GGGAAUGGAUCCACAUCUACGAAUUCGUACAAUAGAGAGGUUGUCCGCUCACCGAGAUCGGAAGAGCACACGU | 36 ± 4 nM
target 1 insU 3' of 22,insG 3' of 2 (mixed) RNA 1: CACCCGUGCAAAAAUGCAGGGGUCUAAAACUGAGCGGAUAACCUCUCUAUGG RNA 2: GGGAAUGGAUCCACAUCUACGAAUUCGUACUCAUAGAGAGGUUAUCCGCUCGACCGAGAUCGGAAGAGCACACGU | 29.1 ± 1.8 nM
target 1 insA 3' of 17,insC 3' of 1 (mixed) RNA 1: CACCCGUGCAAAAAUGCAGGGGUCUAAAACUGAGCGGAUAACCUCUCUAUGG RNA 2: GGGAAUGGAUCCACAUCUACGAAUUCGUACCAUAGAAGAGGUUAUCCGCUCACCCGAGAUCGGAAGAGCACACGU | 12.2 ± 1.2 nM
target 1 insU 3' of 22,insC 3' of 9 (mixed) RNA 1: CACCCGUGCAAAAAUGCAGGGGUCUAAAACUGAGCGGAUAACCUCUCUAUGG RNA 2: GGGAAUGGAUCCACAUCUACGAAUUCGUACUCAUAGAGAGGUUACUCCGCUCACCGAGAUCGGAAGAGCACACGU | 36 ± 7 nM
target 1 insG 3' of 16,insC 3' of 3 (mixed) RNA 1: CACCCGUGCAAAAAUGCAGGGGUCUAAAACUGAGCGGAUAACCUCUCUAUGG RNA 2: GGGAAUGGAUCCACAUCUACGAAUUCGUACCAUAGAGGAGGUUAUCCGCUCCACCGAGAUCGGAAGAGCACACGU | 12.4 ± 0.6 nM
target 1 insA 3' of 17,insA 3' of 2 (mixed) RNA 1: CACCCGUGCAAAAAUGCAGGGGUCUAAAACUGAGCGGAUAACCUCUCUAUGG RNA 2: GGGAAUGGAUCCACAUCUACGAAUUCGUACCAUAGAAGAGGUUAUCCGCUCAACCGAGAUCGGAAGAGCACACGU | 13.8 ± 0.7 nM
target 1 C6U,G15C (mixed) RNA 1: CACCCGUGCAAAAAUGCAGGGGUCUAAAACUGAGCGGAUAACCUCUCUAUGG RNA 2: GGGAAUGGAUCCACAUCUACGAAUUCGUACCAUAGACAGGUUAUCUGCUCACCGAGAUCGGAAGAGCACACGU | 62 ± 7 nM
target 1 C4U,C7G (mixed) RNA 1: CACCCGUGCAAAAAUGCAGGGGUCUAAAACUGAGCGGAUAACCUCUCUAUGG RNA 2: GGGAAUGGAUCCACAUCUACGAAUUCGUACCAUAGAGAGGUUAUGCGUUCACCGAGAUCGGAAGAGCACACGU | 10.4 ± 0.4 nM
target 1 U3C,G5C (mixed) RNA 1: CACCCGUGCAAAAAUGCAGGGGUCUAAAACUGAGCGGAUAACCUCUCUAUGG RNA 2: GGGAAUGGAUCCACAUCUACGAAUUCGUACCAUAGAGAGGUUAUCCCCCCACCGAGAUCGGAAGAGCACACGU | 6.3 ± 0.7 nM
target 1 A1U,U19A (mixed) RNA 1: CACCCGUGCAAAAAUGCAGGGGUCUAAAACUGAGCGGAUAACCUCUCUAUGG RNA 2: GGGAAUGGAUCCACAUCUACGAAUUCGUACCAAAGAGAGGUUAUCCGCUCUCCGAGAUCGGAAGAGCACACGU | 29 ± 4 nM
target 1 insG 3' of 20,insA 3' of 11 (mixed) RNA 1: CACCCGUGCAAAAAUGCAGGGGUCUAAAACUGAGCGGAUAACCUCUCUAUGG RNA 2: GGGAAUGGAUCCACAUCUACGAAUUCGUACCAGUAGAGAGGUAUAUCCGCUCACCGAGAUCGGAAGAGCACACGU | 75 ± 33 nM
target 1 insA 3' of 17,insG 3' of 1 (mixed) RNA 1: CACCCGUGCAAAAAUGCAGGGGUCUAAAACUGAGCGGAUAACCUCUCUAUGG RNA 2: GGGAAUGGAUCCACAUCUACGAAUUCGUACCAUAGAAGAGGUUAUCCGCUCAGCCGAGAUCGGAAGAGCACACGU | 17.6 ± 1.7 nM
target 1 A9U,G17A (mixed) RNA 1: CACCCGUGCAAAAAUGCAGGGGUCUAAAACUGAGCGGAUAACCUCUCUAUGG RNA 2: GGGAAUGGAUCCACAUCUACGAAUUCGUACCAUAAAGAGGUUUUCCGCUCACCGAGAUCGGAAGAGCACACGU | 41 ± 5 nM
target 1 C7U,A9U (mixed) RNA 1: CACCCGUGCAAAAAUGCAGGGGUCUAAAACUGAGCGGAUAACCUCUCUAUGG RNA 2: GGGAAUGGAUCCACAUCUACGAAUUCGUACCAUAGAGAGGUUUUUCGCUCACCGAGAUCGGAAGAGCACACGU | 6.3 ± 0.4 nM
target 1 insU 3' of 14,insA 3' of 3 (mixed) RNA 1: CACCCGUGCAAAAAUGCAGGGGUCUAAAACUGAGCGGAUAACCUCUCUAUGG RNA 2: GGGAAUGGAUCCACAUCUACGAAUUCGUACCAUAGAGAUGGUUAUCCGCUACACCGAGAUCGGAAGAGCACACGU | 56 ± 14 nM
target 1 insA 3' of 15,insC 3' of 3 (mixed) RNA 1: CACCCGUGCAAAAAUGCAGGGGUCUAAAACUGAGCGGAUAACCUCUCUAUGG RNA 2: GGGAAUGGAUCCACAUCUACGAAUUCGUACCAUAGAGAAGGUUAUCCGCUCCACCGAGAUCGGAAGAGCACACGU | 10.1 ± 1.3 nM
target 1 insC 3' of 9,insU 3' of 4 (mixed) RNA 1: CACCCGUGCAAAAAUGCAGGGGUCUAAAACUGAGCGGAUAACCUCUCUAUGG RNA 2: GGGAAUGGAUCCACAUCUACGAAUUCGUACCAUAGAGAGGUUACUCCGCUUCACCGAGAUCGGAAGAGCACACGU | 9.2 ± 0.6 nM
target 1 U10G,G13A (mixed) RNA 1: CACCCGUGCAAAAAUGCAGGGGUCUAAAACUGAGCGGAUAACCUCUCUAUGG RNA 2: GGGAAUGGAUCCACAUCUACGAAUUCGUACCAUAGAGAAGUGAUCCGCUCACCGAGAUCGGAAGAGCACACGU | 42 ± 15 nM
target 1 insG 3' of 18,insA 3' of 8 (mixed) RNA 1: CACCCGUGCAAAAAUGCAGGGGUCUAAAACUGAGCGGAUAACCUCUCUAUGG RNA 2: GGGAAUGGAUCCACAUCUACGAAUUCGUACCAUAGGAGAGGUUAUACCGCUCACCGAGAUCGGAAGAGCACACGU | 56 ± 5 nM
target 1 insA 3' of 17,insU 3' of 1 (mixed) RNA 1: CACCCGUGCAAAAAUGCAGGGGUCUAAAACUGAGCGGAUAACCUCUCUAUGG RNA 2: GGGAAUGGAUCCACAUCUACGAAUUCGUACCAUAGAAGAGGUUAUCCGCUCAUCCGAGAUCGGAAGAGCACACGU | 18.5 ± 1.9 nM
target 1 C7A,A14G (mixed) RNA 1: CACCCGUGCAAAAAUGCAGGGGUCUAAAACUGAGCGGAUAACCUCUCUAUGG RNA 2: GGGAAUGGAUCCACAUCUACGAAUUCGUACCAUAGAGGGGUUAUACGCUCACCGAGAUCGGAAGAGCACACGU | 15.6 ± 0.6 nM
target 1 C2A,U3A (mixed) RNA 1: CACCCGUGCAAAAAUGCAGGGGUCUAAAACUGAGCGGAUAACCUCUCUAUGG RNA 2: GGGAAUGGAUCCACAUCUACGAAUUCGUACCAUAGAGAGGUUAUCCGCAAACCGAGAUCGGAAGAGCACACGU | 10 ± 0.8 nM
target 1 C4G,A18C (mixed) RNA 1: CACCCGUGCAAAAAUGCAGGGGUCUAAAACUGAGCGGAUAACCUCUCUAUGG RNA 2: GGGAAUGGAUCCACAUCUACGAAUUCGUACCAUCGAGAGGUUAUCCGGUCACCGAGAUCGGAAGAGCACACGU | 44 ± 7 nM
